B1: Probable E3 ubiquitin-protein ligase MID2 (Homo sapiens), Q9UJV3 (parent)
chain: MGESPASVVLNASGGLFSLKMETLESELTCPICLELFEDPLLLPCAHSLCFSCAHRILVSSCSSGESIEPITAFQCPTCRYVISLNHRGLDGLKRNVTLQNIIDRFQKASVSGPNSPSESRRERTYRPTTAMSSERIACQFCEQDPPRDAVKTCITCEVSYCDRCLRATHPNKKPFTSHRLVEPVPDTHLRGITCLDHENEKVNMYCVSDDQLICALCKLVGRHRDHQVASLNDRFEKLKQTLEMNLTNLVKRNSELENQMAKLIQICQQVEVNTAMHEAKLMEECDELVEIIQQRKQMIAVKIKETKVMKLRKLAQQVANCRQCLERSTVLINQAEHILKENDQARFLQSAKNIAERVAMATASSQVLIPDINFNDAFENFALDFSREKKLLEGLDYLTAPNPPSIREELCTASHDTITVHWISDDEFSISSYELQYTIFTGQANFISKSWCSWGLWPEIRKCKEAVSCSRLAGAPRGLYNSVDSWMIVPNIKQNHYTVHGLQSGTRYIFIVKAINQAGSRNSEPTRLKTNSQPFKLDPKMTHKKLKISNDGLQMEKDESSLKKSHTPERFSGTGCYGAAGNIFIDSGCHYWEVVMGSSTWYAIGIAYKSAPKNEWIGKNASSWVFSRCNSNFVVRHNNKEMLVDVPPHLKRLGVLLDYDNNMLSFYDPANSLHLHTFDVTFILPVCPTFTIWNKSLMILSGLPAPDFIDYPERQECNCRPQESPYVSGMKTCH

Variants of: B1
Conditions: with lrrk2_human LRRK2, Q5S007
Chain of lrrk2_human LRRK2, Q5S007 (Q5S007 whole entry): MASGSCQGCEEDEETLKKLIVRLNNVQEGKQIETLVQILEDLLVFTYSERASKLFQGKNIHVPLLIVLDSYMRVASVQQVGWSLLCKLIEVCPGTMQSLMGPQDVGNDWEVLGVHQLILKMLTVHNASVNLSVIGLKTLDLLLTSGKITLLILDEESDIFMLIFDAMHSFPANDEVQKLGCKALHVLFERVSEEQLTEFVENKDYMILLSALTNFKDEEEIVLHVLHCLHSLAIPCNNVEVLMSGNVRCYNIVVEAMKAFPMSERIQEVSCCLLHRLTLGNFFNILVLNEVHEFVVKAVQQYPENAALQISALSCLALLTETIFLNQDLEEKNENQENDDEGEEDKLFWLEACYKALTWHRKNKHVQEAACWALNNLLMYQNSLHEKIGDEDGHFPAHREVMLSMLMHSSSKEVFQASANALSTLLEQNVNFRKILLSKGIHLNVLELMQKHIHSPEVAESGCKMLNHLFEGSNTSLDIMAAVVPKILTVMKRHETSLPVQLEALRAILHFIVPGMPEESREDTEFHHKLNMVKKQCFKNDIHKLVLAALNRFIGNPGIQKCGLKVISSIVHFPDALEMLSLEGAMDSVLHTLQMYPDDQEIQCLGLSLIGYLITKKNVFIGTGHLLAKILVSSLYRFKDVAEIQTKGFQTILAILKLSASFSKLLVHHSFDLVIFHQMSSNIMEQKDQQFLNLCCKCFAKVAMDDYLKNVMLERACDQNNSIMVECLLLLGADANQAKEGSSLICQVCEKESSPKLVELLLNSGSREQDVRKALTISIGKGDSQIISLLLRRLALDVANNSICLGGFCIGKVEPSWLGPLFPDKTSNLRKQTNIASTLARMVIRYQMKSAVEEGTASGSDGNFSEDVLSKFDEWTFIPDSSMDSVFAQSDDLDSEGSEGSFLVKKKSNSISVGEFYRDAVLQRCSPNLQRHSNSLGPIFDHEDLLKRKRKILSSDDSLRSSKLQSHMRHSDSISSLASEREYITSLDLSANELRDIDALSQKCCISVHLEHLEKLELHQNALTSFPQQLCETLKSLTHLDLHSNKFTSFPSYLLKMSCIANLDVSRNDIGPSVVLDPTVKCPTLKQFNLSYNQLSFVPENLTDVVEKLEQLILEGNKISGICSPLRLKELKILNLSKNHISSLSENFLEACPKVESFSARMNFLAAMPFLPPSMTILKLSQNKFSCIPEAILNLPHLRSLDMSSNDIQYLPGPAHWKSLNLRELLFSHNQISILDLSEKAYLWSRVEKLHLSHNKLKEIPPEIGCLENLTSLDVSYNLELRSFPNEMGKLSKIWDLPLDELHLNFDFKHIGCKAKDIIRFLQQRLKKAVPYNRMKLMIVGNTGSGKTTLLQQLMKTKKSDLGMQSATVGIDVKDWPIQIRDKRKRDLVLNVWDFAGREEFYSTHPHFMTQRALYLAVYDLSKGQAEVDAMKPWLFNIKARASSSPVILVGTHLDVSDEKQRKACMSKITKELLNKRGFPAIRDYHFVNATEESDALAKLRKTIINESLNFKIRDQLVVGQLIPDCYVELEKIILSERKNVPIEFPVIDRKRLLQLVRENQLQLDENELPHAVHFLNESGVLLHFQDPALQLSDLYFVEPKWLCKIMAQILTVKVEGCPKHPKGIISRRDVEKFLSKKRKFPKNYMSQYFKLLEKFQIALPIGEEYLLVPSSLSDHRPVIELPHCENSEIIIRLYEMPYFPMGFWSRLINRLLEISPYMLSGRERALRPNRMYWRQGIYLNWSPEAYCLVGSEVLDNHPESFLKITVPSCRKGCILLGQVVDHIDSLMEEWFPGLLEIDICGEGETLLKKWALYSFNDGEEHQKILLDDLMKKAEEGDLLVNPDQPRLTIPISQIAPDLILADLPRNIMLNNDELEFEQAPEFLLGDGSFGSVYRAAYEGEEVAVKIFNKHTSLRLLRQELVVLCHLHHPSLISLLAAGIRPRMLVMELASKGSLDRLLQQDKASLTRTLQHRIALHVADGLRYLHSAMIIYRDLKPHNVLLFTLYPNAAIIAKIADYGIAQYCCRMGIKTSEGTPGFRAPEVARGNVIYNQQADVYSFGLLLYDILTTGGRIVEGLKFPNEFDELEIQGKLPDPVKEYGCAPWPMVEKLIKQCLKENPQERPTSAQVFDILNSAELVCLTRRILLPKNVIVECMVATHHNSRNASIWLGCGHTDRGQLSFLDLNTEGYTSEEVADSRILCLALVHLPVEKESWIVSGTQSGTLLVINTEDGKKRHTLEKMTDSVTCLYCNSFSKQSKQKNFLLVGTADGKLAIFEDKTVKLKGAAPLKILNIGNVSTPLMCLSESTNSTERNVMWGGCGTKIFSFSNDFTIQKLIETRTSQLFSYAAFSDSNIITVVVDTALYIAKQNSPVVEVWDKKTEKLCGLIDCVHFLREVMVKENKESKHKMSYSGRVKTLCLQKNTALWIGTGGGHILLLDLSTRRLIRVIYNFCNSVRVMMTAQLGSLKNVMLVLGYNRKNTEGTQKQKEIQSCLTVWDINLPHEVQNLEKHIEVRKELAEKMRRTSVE

Row | Variant | effect of a mutation on the interaction
1 | F348A;L349A;Q350A;L396A;D397A;Y398A | with no effect

— IntAct's records for PubMed 35266954
